Source: US20160319032A1 (MEDLMMUNE, published 2016)
Like-named read-outs stand apart in the source and are kept apart here.

Columns and labels:
[1] = target: human αV on parental A375M cells (αVβ3 and αVβ5 integrins) (human, UniProt P06756 31-1048); test: cell-based or functional assay
[2] = target: T1, cynomolgus αV on transfected HEK-293 cells (cynomolgus); test: FACS, purified mAb, transfected HEK-293 (parental: 74)
T1 construct: whole, on cells; Transfected alone into human HEK-293 cells; also called Cynomolgus alphaV

[3] = target: T2, cynomolgus αVβ6 on cells (cynomolgus); test: as above
T2 construct: whole, on cells; also called macaque αVβ6; Mac AVB6

[4] = target: T3, mouse αV on transfected HEK-293 cells (mouse, UniProt P43406 31-1044); test: as above
T3 construct: whole, on cells; Transfected alone into human HEK-293 cells; also called Mouse alpha V

[5] = target: T2, cynomolgus αVβ6 on cells; test: FACS, supernatant, HEK-293 transfected with cynomolgus αV and β6
[6] = target: T4, α4β1 integrin on J6.77 cells (UniProt P13612 34-1032; P05556 21-798); test: cell-based or functional assay
[7] = target: T5, α5β1 integrin on K562 cells (UniProt P08648 42-1049; P05556 21-798); test: cell-based or functional assay
[8] = target: T5, α5β1 integrin on K562 cells; test: cell-based or functional assay; remark: listed apart in the source
[9] = target: T4, α4β1 integrin on J6.77 cells; test: cell-based or functional assay; remark: listed apart in the source
[10] = target: T6, human αVβ6 integrin on cells (human, UniProt P06756 31-1048; P18564 22-788); test: cell-based or functional assay
[11] = target: T6, human αVβ6 integrin on cells; test: cell-based or functional assay; remark: listed apart in the source
[12] = target: T6, human αVβ6 integrin on cells; test: cell-based or functional assay; remark: listed apart in the source
[13] = target: T6, human αVβ6 integrin on cells; test: cell-based or functional assay; remark: listed apart in the source
[14] = target: T6, human αVβ6 integrin on cells; test: FMAT, supernatant, HEK 293 cells stably overexpressing αVβ6
[15] = target: T6, human αVβ6 integrin on cells; test: cell-based or functional assay; remark: listed apart in the source

T6 sequence (P06756 31-1048, chain 1 of 2): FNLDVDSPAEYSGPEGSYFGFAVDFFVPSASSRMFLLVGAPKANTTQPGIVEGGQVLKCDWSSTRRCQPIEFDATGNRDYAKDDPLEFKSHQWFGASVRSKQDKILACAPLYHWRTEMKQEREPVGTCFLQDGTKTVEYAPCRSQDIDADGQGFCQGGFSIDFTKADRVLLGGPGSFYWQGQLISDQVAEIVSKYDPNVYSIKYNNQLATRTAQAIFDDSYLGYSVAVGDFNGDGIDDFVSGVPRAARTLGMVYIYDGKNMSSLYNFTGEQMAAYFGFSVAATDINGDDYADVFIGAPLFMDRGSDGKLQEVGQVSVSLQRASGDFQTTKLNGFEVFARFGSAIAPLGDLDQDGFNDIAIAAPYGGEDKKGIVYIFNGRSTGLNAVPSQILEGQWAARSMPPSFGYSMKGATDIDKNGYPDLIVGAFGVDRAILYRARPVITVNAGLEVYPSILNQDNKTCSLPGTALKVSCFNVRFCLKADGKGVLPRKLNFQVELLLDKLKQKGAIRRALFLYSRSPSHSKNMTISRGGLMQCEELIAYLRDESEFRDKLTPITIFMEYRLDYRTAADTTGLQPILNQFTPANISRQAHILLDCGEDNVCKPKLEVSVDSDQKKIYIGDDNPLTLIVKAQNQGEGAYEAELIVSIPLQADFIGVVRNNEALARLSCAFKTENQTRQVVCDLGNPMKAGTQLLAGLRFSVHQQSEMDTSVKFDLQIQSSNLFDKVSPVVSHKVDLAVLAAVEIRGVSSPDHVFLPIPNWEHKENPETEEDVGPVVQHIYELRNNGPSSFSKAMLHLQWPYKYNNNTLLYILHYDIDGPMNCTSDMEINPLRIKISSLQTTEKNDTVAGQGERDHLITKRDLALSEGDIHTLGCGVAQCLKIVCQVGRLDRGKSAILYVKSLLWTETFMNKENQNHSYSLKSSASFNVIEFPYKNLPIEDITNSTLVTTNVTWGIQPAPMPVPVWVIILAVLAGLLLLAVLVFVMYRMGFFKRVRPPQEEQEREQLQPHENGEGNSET
T6 sequence (P18564 22-788, chain 2 of 2): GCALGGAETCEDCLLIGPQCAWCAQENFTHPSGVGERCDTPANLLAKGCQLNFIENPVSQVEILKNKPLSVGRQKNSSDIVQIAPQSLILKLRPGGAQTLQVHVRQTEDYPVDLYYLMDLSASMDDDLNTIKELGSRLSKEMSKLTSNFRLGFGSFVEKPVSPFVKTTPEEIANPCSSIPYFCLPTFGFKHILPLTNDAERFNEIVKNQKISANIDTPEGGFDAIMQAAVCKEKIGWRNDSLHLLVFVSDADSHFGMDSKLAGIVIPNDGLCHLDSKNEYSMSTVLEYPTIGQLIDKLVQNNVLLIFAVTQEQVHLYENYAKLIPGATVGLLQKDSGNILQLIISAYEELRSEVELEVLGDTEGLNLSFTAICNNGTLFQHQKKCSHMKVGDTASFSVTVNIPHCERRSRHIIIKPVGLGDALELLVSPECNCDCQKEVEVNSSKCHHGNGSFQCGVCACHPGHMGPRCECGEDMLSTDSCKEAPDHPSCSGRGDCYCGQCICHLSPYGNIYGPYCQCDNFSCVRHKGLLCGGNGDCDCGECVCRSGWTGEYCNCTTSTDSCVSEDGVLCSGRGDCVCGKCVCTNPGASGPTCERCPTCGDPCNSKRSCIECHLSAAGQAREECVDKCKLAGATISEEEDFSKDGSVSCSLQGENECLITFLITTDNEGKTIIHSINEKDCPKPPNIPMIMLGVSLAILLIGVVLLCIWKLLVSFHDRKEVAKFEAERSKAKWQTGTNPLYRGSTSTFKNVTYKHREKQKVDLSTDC
T5 sequence (P08648 42-1049, chain 1 of 2): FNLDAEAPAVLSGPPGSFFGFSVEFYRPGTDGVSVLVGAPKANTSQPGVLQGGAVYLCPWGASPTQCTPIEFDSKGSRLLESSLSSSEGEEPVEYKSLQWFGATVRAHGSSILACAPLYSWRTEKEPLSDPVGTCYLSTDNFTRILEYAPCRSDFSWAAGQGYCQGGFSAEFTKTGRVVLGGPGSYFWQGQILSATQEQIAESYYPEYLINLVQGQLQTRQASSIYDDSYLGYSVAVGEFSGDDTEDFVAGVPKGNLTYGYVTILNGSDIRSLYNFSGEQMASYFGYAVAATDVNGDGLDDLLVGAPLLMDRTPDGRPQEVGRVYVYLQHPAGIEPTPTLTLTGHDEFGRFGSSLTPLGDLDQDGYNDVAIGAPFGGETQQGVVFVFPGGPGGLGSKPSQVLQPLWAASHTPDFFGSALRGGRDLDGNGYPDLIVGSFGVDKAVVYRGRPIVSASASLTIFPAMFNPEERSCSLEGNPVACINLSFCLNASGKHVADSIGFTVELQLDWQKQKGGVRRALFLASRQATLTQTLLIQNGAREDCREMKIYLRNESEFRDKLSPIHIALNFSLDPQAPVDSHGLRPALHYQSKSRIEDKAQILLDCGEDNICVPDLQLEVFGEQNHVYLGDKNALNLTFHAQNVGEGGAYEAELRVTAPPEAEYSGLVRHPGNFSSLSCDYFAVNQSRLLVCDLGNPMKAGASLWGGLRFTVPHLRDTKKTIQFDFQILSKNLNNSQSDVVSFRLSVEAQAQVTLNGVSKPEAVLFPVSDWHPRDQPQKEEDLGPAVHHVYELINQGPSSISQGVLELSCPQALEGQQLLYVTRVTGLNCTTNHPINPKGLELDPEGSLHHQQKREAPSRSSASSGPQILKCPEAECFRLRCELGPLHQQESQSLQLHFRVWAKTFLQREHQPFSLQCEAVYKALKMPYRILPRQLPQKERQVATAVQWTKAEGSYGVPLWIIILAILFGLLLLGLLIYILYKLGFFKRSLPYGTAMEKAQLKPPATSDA
T5 sequence (P05556 21-798, chain 2 of 2): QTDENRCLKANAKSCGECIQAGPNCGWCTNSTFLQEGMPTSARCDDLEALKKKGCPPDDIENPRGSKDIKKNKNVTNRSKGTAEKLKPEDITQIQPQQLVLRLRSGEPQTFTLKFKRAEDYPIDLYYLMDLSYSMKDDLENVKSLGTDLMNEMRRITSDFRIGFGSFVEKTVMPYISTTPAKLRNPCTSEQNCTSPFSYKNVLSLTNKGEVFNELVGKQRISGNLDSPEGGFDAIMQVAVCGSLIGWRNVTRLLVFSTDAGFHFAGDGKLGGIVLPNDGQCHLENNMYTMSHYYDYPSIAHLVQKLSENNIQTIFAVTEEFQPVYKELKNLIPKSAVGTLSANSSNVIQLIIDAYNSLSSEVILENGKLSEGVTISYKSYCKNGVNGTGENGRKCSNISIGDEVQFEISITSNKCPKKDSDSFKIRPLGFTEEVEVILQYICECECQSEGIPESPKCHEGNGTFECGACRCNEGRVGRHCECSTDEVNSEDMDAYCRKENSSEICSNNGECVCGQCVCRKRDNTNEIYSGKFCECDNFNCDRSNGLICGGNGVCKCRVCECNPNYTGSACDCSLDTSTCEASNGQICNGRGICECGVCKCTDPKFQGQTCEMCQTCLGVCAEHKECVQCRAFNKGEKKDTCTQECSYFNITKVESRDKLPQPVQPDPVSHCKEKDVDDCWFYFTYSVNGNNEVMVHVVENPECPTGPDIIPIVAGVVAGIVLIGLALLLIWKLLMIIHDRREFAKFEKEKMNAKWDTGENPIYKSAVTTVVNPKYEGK
Chain of human αV on parental A375M cells (αVβ3 and αVβ5 integrins) (P06756 31-1048 A375M, form in doubt): as the sequence (P06756 31-1048, chain 1 of 2) above, with A345M counted along it
T3 sequence (P43406 31-1044): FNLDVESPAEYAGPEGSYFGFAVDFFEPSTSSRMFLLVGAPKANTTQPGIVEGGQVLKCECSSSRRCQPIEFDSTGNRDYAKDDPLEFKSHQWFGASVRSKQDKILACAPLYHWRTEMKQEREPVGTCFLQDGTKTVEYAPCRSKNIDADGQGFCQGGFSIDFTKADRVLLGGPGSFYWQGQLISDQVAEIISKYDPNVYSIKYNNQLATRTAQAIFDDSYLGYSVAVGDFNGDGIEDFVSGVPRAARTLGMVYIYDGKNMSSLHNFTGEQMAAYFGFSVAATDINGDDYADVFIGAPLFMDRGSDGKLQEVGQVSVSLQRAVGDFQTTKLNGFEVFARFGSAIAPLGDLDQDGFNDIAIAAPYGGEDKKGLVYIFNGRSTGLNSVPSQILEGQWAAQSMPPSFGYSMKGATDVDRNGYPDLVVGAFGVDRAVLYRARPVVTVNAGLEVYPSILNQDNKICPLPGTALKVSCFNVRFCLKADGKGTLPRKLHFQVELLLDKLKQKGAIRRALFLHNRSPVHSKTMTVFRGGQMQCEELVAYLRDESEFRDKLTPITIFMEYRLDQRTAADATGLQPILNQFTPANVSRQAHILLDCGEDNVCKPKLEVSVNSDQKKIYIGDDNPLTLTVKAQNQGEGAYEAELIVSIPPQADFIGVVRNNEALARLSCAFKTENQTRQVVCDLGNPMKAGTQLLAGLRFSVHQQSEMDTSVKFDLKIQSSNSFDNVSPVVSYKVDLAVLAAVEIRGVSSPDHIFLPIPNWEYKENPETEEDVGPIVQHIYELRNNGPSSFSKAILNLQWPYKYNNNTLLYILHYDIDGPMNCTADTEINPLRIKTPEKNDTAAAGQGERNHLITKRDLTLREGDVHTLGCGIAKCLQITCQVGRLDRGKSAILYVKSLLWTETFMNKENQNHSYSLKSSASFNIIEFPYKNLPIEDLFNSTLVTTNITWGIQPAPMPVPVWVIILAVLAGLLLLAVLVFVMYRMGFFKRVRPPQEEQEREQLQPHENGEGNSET

Binder	% Cells Shifted [5]	GeoMean [5]	Percent Inhibition of J6.77 adhesion to CS-1 peptide, 5 ug/ml [6]	Percent Inhibition of K562 adhesion to FN9-10, 5 ug/ml [7]	% Inhibition of K562 adhesion to fibronectin [8]	Percent Inhibition of J6.77 adhesion to CS-1 peptide, 5 ug/ml [9]	Assay 1 % Inhibition of adhesion [12]	Assay 2 % Inhibition of adhesion [12]	Average % Inhibition of adhesion [12]	Estimated IC50, adhesion assay, n = 1 [13]	Estimated IC50, adhesion assay, n = 2 [13]	FMAT FL1XCount [14]	other results
sc 264 (antibody, V domains shown, lambda light chain) VH: QVQLQESGPGLVKPSQTLSLTCTVSGGSISSGGYYWSWIRQHPGKGLEWIGYIYYSGRTYNNPSLKSRVTISVDTSKNQFSLKLSSVTAADTAVYYCARVATGRGDYHFYAMDVWGQGTTVTVSS VL: SYELTQPSSVSVSPGQTARITCSGDVLAKKSARWFHQKPGQAPVLVIYKDSERPSGIPERFSGSSSGTTVTLTISGAQVEDEAAYYCYSAADNNLVFGGGTKLTVL	55%	66.4	-30%	-4%	3%	-8%							Percent Inhibition of A375M adhesion to osteopontin peptide, 5 ug/ml [1]: 3%; percent of cells shifted [2]: 70%; percent of cells shifted [3]: 54%; percent of cells shifted [4]: 71%
sc 264 RAD (antibody, V domains shown) VH: QVQLQESGPGLVKPSQTLSLTCTVSGGSISSGGYYWSWIRQHPGKGLEWIGYIYYSGRTYNNPSLKSRVTISVDTSKNQFSLKLSSVTAADTAVYYCARVATGRADYHFYAMDVWGQGTTVTVSS VL: SYELTQPSSVSVSPGQTARITCSGDVLAKKSARWFHQKPGQAPVLVIYKDSERPSGIPERFSGSSSGTTVTLTISGAQVEDEAAYYCYSAADNNLVFGGGTKLTVL			-2%		6%								Percent Internalization, 1 ug/ml [10]: 31%; Percent Internalization, 10 ug/ml [10]: 42%; IC50, adhesion of HT29 cells, n = 1 [11]: 0.013 mg/L; IC50, adhesion of HT29 cells, n = 2 [11]: 0.013 mg/L; IC50, adhesion of HT29 cells, n = 3 [11]: 0.039 mg/L
sc 58 (antibody, V domains shown, lambda light chain; also called sc 058) VH: not shown VL: SYELTQPPSVSVSPGQTARITCSGDALPKKYAYWYQQKSGQAPVLVIYDDSKRPSGIPERFSGSSSGTMATLTISGAQVEDEADYYCYSTDSSGNHRVFGGGTKLTVL	25%	22.8				-14%	77%	46%	62%	4.07 mg/L	2.03 mg/L		Estimated IC50, adhesion assay, n = 3 [13]: 3.26 mg/L
sc 277 (antibody, V domains shown, lambda light chain) VH: EVQLVQSGAEVKKPGESLKISCKGSGYSFPSYWIGWVRQMPGKGLEWMGIIYPGDSDTRYSPSFQGQVTISADKSISTAYLQWSSLKASDTAMYYCARHPMEDGMDVWGQGTTVTVSS VL: SYELTQPPSVSVSPGQTARITCSGDALPKKYAFWYQQKSGQAPVLVIYDDNKRPSGIPERFSGSSSGTMATLTITGAQVEDEADYYCYSTDSSGHHVFGGGTKLTVL						-17%	98%	101%	100%	1.46 mg/L	0.54 mg/L	10700	Estimated IC50, adhesion assay, n = 3 [13]: 0.72 mg/L
sc 97 (antibody, V domains shown, lambda light chain; also called sc 097) VH: EVQLVQSGAEVKKPGESLKISCKGSGYSFTSYWIGWVRQMPGKGLEWMGIIYPGDSDTRYSPSFQGQVILSADKSISTAYLQWSSLKASDTAMYYCARHDESSGYYYVFDIWGQGTMVTVSS VL: SYELTQPPSVSVSPGQTARITCSGDALPKKYAYWYQQKSGQAPVLVIYEDIKRPSGIPERFSGSSSGTMATLTISGAQVEDEADYYCYSTDSSGNHWVFFGGGTKLTVL	35%	37				-7%							
sc 254 (antibody, V domains shown, kappa light chain) VH: QVQLQESGPGLVKPSQTLSLTCTVSGGSISSGGYYWSWIRQHPGKGLEWIGYIYYSGSTYYNPSLKSRVTISVDTSKNQFSLKLSSVTAADTAMYYCARYRGPAAGRGDFYYFGMDVWGQGTTVTVSS VL: DIVMTQTPLSLSVTPGQPASIFCKSSQSLLNSDGKTYLCWYLQKPGQPPQLLIYEVSNRFSGVPDRFSGSGSGTDFTLKISRVEAEDVGVYYCMQGIQLPWAFFGQGTKVEIK				-9%		0%	98%	106%	102%	0.063 mg/L	0.037 mg/L	1.6e+06	Percent Internalization, 1 ug/mL [15]: 39%; Percent Internalization, 10 ug/mL [15]: 49%; Estimated IC50, adhesion assay, n = 3 [13]: 0.037 mg/L
sc 320 (antibody, V domains shown, lambda light chain) VH: EVQLVESGGGLVKPGGSLRLSCAASGYTFTNYIMHWVRQAPGKGLEWVSSISISSSYIYYADSVKGRFTISRDNAKNSLYLQMNSLRAEDTAVYYCARDPVPLERRDYYYGMDVWGQGTTVTVSS VL: QSVLTQPPSMSAAPGQKVTISCSGSSSNIGNNYVSWYQQLPGTAPKLLIYDNNKRPSGIPDRFSGSKSGTSATLGITGLQTGDEADYYCGTWDSSLSAGVFGGGTKLTVL	19%	33.5				-8%							
sc 161 (antibody, V domains shown, kappa light chain) VH: EVQLVQSGAEVKKPGESLKISCKGSGYSFTSYWIGWVRQMPGKGLEWMGIIYPGDSDTRYSPSFQGQVTISADKSISTAYLQWSSLKASDTAMYYCARHGIAAAGFYYYYMDVWGQGTTVTVSS VL: EIVLTQSPDTLSLSPGERASLSCRASQNVNRNYLVWYQQKPGQAPRLLIYGTSNRATGIPDRFSGSGSGTDFTLTISRLEPEDFAVYYCQQCGSLPFTFGPGTKVDIKR						12%	98%	106%	102%	2.41 mg/L	0.137 mg/L	16700	
sc 49 (antibody, V domains shown, kappa light chain; also called sc 049) VH: QVQLQESGPGLVKPSQTLSLTCTVAGGSIRSGDYYWSWIRQHPGKGLEWIGNIYYSGSTYYNPSLKSRITISVATSRNQFSLKLTSVTAADTAVYYCARGGAITIFGVFDYWGQGTLVTVSS VL: not shown	23%	30.2											
sc 133 (antibody, V domains shown, lambda light chain; also called mAb sc 133) VH: QVQLVQSGAEVKKPGASVKVSCKASGYTFTGYYMHWVRQAPGQGLEWMGWINPKSGDTNYAQKFQGRVTLTRDTSTSTAYMELSRLRSDDTAVYYCARRLDVWGQGTTVTVSS VL: QSVLTQPPSVSAAPGQKVTISCSGSSSNIGNNYVSWYQQLPGTAPKLLIYDNNKRPSGIPDRFSGSKSGTSATLGITGLQTGDEADYYCGTWNSSLSAGYVFGTGTKVTV	32%	35.2		-12%		-15%							Percent Inhibition of A375M adhesion to osteopontin peptide, 5 ug/ml [1]: 3%
sc 188 (antibody, V domains shown, kappa light chain) VH: QVQLQESGPGLVKPSQTLSLTCTVSGGSISSGVYYWTWIRQHPGNGLEWIGYIYYSGSTSYNPSLKSRVTISVDTSKKQFSLNLTSVTAADTAVYYCAREGPLRGDYYYGLDVWGQGTTVTVSS VL: EIVLTQSPGTLSLSPGERATLSCRAGQTISSRYLAWYQQKPGQAPRPLIYGASSRATGIPDRFSGSGSGTDFTLTISRLEPEDFAVYYCQQYGSSPRTFGQGTKVEIK			2%	5%	-5%	-10%	99%	103%	101%	0.041 mg/L	0.026 mg/L	79800	Percent Internalization, 1 ug/ml [10]: 27%; Percent Internalization, 10 ug/ml [10]: 18%; Percent Internalization, 1 ug/mL [15]: 34%; Percent Internalization, 10 ug/mL [15]: 38%; IC50, adhesion of HT29 cells, n = 1 [11]: 0.125 mg/L; IC50, adhesion of HT29 cells, n = 2 [11]: 0.157 mg/L; IC50, adhesion of HT29 cells, n = 3 [11]: 0.064 mg/L
sc 188 SDM (antibody, V domains shown) VH: QVQLQESGPGLVKPSQTLSLTCTVSGGSISSGVYYWTWIRQHPGNGLEWIGYIYYSGSTSYNPSLKSRVTISVDTSKKQFSLKLTSVTAADTAVYYCAREGPLRGDYYYGLDVWGQGTTVTVSS VL: EIVLTQSPGTLSLSPGERATLSCRAGQTISSRYLAWYQQKPGQAPRPLIYGASSRATGIPDRFSGSGSGTDFTLTISRLEPEDFAVYYCQQYGSSPRTFGQGTKVEIK			-6%		-8%								Percent Internalization, 1 ug/ml [10]: 17%; Percent Internalization, 10 ug/ml [10]: 22%; IC50, adhesion of HT29 cells, n = 1 [11]: 0.022 mg/L; IC50, adhesion of HT29 cells, n = 2 [11]: 0.024 mg/L; IC50, adhesion of HT29 cells, n = 3 [11]: 0.067 mg/L
